Experimental data from IntAct's records for PubMed 15933069.

Legend:
kmt5a_human KMT5A [1] = molecular target: T1, kmt5a_human KMT5A (UniProt Q9NQR1)
T1 sequence: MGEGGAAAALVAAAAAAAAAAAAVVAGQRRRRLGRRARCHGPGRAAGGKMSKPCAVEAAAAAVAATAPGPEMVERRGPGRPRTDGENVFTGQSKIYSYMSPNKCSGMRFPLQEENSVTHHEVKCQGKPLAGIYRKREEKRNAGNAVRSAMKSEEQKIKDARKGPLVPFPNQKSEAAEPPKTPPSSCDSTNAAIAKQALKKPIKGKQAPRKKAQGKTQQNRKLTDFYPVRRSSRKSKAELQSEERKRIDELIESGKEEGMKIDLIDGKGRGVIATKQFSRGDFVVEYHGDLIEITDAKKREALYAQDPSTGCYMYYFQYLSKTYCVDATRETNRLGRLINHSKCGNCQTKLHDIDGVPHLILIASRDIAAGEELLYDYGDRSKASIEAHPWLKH

kmt5a_human KMT5A [2] = molecular target: T1, kmt5a_human KMT5A; remark: listed apart in the source

Histone H4 (Homo sapiens) (from UniProt P62805) H19A
effect of a mutation on the interaction (kmt5a_human KMT5A [1]): decreasing interaction

Histone H4 (Homo sapiens) (from UniProt P62805) H19Q
effect of a mutation on the interaction (kmt5a_human KMT5A [2]): decreasing interaction

Histone H4 (Homo sapiens) (from UniProt P62805) H19Y
effect of a mutation on the interaction (kmt5a_human KMT5A [2]): decreasing interaction
